Consider 13 sequences from the DeepSol protein solubility set.

The series is described as follows: soluble on expression in E. coli; label from the status in PepcDB or PDB records.
Consider “MSLSDQSQIIAGFTLWHLSLPVTARRDHGIGSVAGAVEVVVLRLQADSGAVGYGEASPWVVFTGSVEATYAALDRYLRPLVLGRAVGDHAAIMEDARAAVAHCTEAKAALDTALYDLRARIAGVPVWALLGGRCRDRIPLSCSIADPDFDKDLALMQRLQDDDVRIIKLKTGFKDHAFDMMRLERLRADFPAFDIRVDYNQGLHHDVALARVRDVATFKPTFIEQPVKAHLRGLMARIRDAVDVPLLADESIFGPEDMAEHPEIADGVSIKIMKSGGLTRAQTVARMAAARGLSAYGGDMFEAGLAHLAGAHMIAATPEITLGCEFYQATYFLCDDILAAPFPVADGHVLVPDTPGLGVDVDEDALARFAVAREGHHHHHH”, for which the “soluble on expression in E. coli” value is given as “soluble”. Then “MSLSEKTFPSHARVVIVGGGVMGVGLAYHLAHEGWGHDTVLLEKAELTSGSTWHAAGQITHSTSSYGLGKCVDYNIGLYSGGLEAETGQAVTWHGCGSFRLAYTEDEMDWLRHTLSVGRSLGFNIDLVSPQRVAELHPFYNLDGVLGALHTPDDGHVDPTNVTMALAAGARAKGVRIIRRCRASNITQLASGEWQVETDQGTITCEHVVNAGGTYARQMGEWSGLQLPMTSMTHHYFVTENVPEFEALDRELPVIRDDKKVSGYIRMEQKRGLIGIYEKANPNAVWLDECPWDYENWLFDADYDRVMPWLEESLNRMPVLAERGITREVHGAISHPPDGNPLIGPAPGVRNYWCCCGTQIGIGWGPGLTRELARWMVHGAADISMRDYDPRRFGSYATKEWQVIKAKEDYCLRHEIPFPHFNRLAGRPVKPSPLYDRLKSKGAVFEEVYGHERPRWFAKAGIAQHDHYGFGRTPVHDVVGDECRAVREAAGIMDISAFTKVELSGPEAETLLDRLVANRLPRKTGGIALTHMLNAAGRIELETTVVRLASDRFYLVCAAFFEQRLLDHLDRHRGTADVTVTLRSNDWAALTLNGPRSRDILATCTDAPLDNAAFPWLTAQEITVAGHRLWAFRMSYAGELGWEFHMPRDAALAVYDALWAAGAPLGLADYGSFAMNAMRMEKGFKGAGELTNEVTLAEADVLRFARTDKAYIGREATLAPARRFVCAYLEIAPDGAHDGHGGEAVLLQGKVVGSTASVAYGHSCGKILAFAYVRPEANVAGTEVEVVIAGTPRPARILGAPAYDPEGLLPRTDAKGIITITTDPNSSSVDKLAAALEHHHHHH”, with “soluble”; and “MSLSELINNREKRVQTLKEIILHLHRGEAPAAVRGRLAALIADVDASEVAAMEQELMAEGMSHQEVQSLCDLHADVLQDVMTRPATPMPLAPGHPVHQLRAENRALGAAAQTARQRVRELAALADEGRFDAERVEALRAFEVLWEVDRHYQRKEHLVFSVLERHGTTGPSKVMWGKDDEVRDLLKASLAALGEEGVSGAELKVVAETVLEPALSALEGMIYKEENILLPMTLGLFTAEDWGEIFRQSPEYGWCLVQPGTGYRPPEPRPVTDAVKLPPAQAVQFPSGTLSFEQLLGLFQALPVDLTFVDRDDRVAFFSEGPDRVFARSRAVIGREVKHCHPPKSVHVVERIVEDFKAGRQSVAEFWIDLHGRFVHIRYFAVRDAAGAYLGTLEVTQDLTRLRALEGERRLLAYDAGPAHDPITREGHHHHHH”, with “soluble”; and “MSLSEPILFVDDEQHVLNALQRVFSESGLETVFTRSPIEALELCRSKKFAVIVSDNMMPEMKGIELLTRIKEESPETVKCLLTAHADLDTALQAINSGEVFRFIVKPWRNEELYQAVSEGVARFREGHHHHHTDPNSSSVDKLAAALEHHHHHH”, with “soluble”. Then “MSLSEYLGNKEAKQQMLKTIIKDLHQGKDFNQVKADFQNLIKDIDASEIANMEQALIGEGMNPEEITKLCDVHAAVFRDALEENEKPNLILGHPMYTIKHENEEIKKALEELDNYFSSNQMDAFKDRLSFFRDNLDRHYSKKENILFPYLERHNITGPPSVMWSVDDEIRDMGKILLTRVKEGDAGAIKTAYETMKNKISEMIFKEENILTPMLLETLTEEEWAEIKQEDEEFGVVFSKPHGNFWQPKAVTTKNISFEPTGEALSLDTGFLTLEQINTILTNIPIDITFVDKDDTVRYFSQGRERIFVRTKSIIGRKVQNCHPPDSVHMVEKILSDFKHGKHSTAEFWLELAEKFIHIRYFALRDEQGHYVGTMEVSQDVTGIRSLEGERRLLQYEDEGHHHHHH”, with “soluble”; and “MSLSFTPLHTTSEAFIEKALPWLEDRYFHIAYLNPNGYTAYPQGAFRHYLAFGSEAAIHVSDATRVFETWNEIKKGYTNEWIFVFASYDGKNSVEQLHTSKEAGIAFAAATFFIPEHVWEIQPDGILIHKGSGSSLVTEIQHAEPSTPVQQSDIFVKQVVSKESYFNAFDELQQIIAQGDAYEINYCIPFTAKGNISPAATYQRLNKKTPMPFSVYYKFNTEYILSASPERFIKKTGDTIISQPIKGTSKRGKSKAEDEMLKQQLGTSEKEQSENTMIVDLVRNDLSRTAVAGSVCVPELSGLYTFPNVHQLISTVQSTIDPACSSIDVIQQAFPMGSMTGAPKVNVMKFIDRIESMARGPFSGTVGYMDPHDNFDFNVLIRSIFYNSATQELFMEAGSAITSYAKAETEYEECLLKITPMIHILNNQEGHHHHHH”, with “soluble”; and “MSLSGKIRVDIPPCLANSLIMPRLPTFLHQYPGIALELCSSDRQVDLLREDFDCVVRTEPLHAPGILTRPLGKLRRVNCASPQYLARFGYPENLDDLASHAMVHYSLTPGVSSPGFAFETPHGMQWVKTGGMLTVNSTETWHTACLAGLGIIQTPRIAVREALRAGTLIEILPQYRAAPLPVTLHYPHRRNLSRRVHLFMVWLTETIKEAAEGHHHHHH”, with “not soluble”. Then “MSLSHSIKPWHEACSKLARTSKPEAFNVDTLFAQLADDTNDTFYTVDPRWITQNAQQFSGCFPGTVLYAMKANPLVHVLEALSQGGINHFDVASLAEVQTVHNTLPNAVQYLMNPVKSRHCLHEAYYRHGVRSFVLDSEEELSKLRDVLPERDSTISMFVRYAPSESTAVYDLRGKFGASPALATQLVHQVAASTDWSLGLSFHVGSQAIEDGPWLAALDDADAIVRDTAQHVRHLDIGGGFPGNYLNSMGNTPDLVGRVCEHIQTSPTLKDLNLICEAGRGLVYGGMSLFARVLSRREHSVFCGAGIFGGLLSAQQWLQFPARVWRDAAPYAGSAEATFNIFGPTCDSMDRLAFPYSLASDIREGDWLEFQSTGAYSVSLRTPFNGFYADRIISLPSEGHHHHHH”, with “soluble”; and “MSLSINSREVLAEKVKNAVNNQPVTDMHTHLFSPNFGEILLWDIDELLTYHYLVAEVMRWTDVSIEAFWAMSKREQADLIWEELFIKRSPVSEACRGVLTCLQGLGLDPATRDLQVYREYFAKKTSEEQVDTVLQLANVSDVVMTNDPFDDNERISWLEGKQPDSRFHAALRLDPLLNEYEQTKHRLRDWGYKVNDEWNEGSIQEVKRFLTDWIERMDPVYMAVSLPPTFSFPEESNRGRIIRDCLLPVAEKHNIPFAMMIGVKKRVHPALGDAGDFVGKASMDGVEHLLREYPNNKFLVTMLSRENQHELVVLARKFSNLMIFGCWWFMNNPEIINEMTRMRMEMLGTSFIPQHSDARVLEQLIYKWHHSKSIIAEVLIDKYDDILQAGWEVTEEEIKRDVADLFSRNFWRFVGRNDHVTSVKVEQQTEGHHHHHH”, with “soluble”. For “MSLSKAKTLYEKIYDAHVVVAAPGETPILYIDRHLVHEVTSPQAFDGLREKGRPVRQVSKTFATMDHNVSTTTKDINASGEMARIQMQTLSKNCEEFGVTLYDINHKYQGIVHVMGPELGITLPGMTIVCGDSHTATHGAFGSLAFGIGTSEVEHVLATQTLKQGRAKTMKIEVRGKVAPGITAKDIVLAIIGKTTAAGGTGYVVEFCGEAIRDLSMEGRMTVCNMAIELGAKAGLIAPDATTFNYIKGRKFAPQGSDWDAAVDYWQTLKTDEDAQFDAVVTLEASEIKPQVTWGTNPGQVIAVDEPIPSPSQFADPVERSSAEKALAYMGLEAGKMLSDYKVDKVFVGSCTNSRIEDMRAAAAVAKGKKVASHVQALIVPGSEQVKAQAEAEGLDKIFIEAGFEWRLPGCSMCLAMNNDRLGPGERCASTSNRNFEGRQGRDGRTHLVSPAMAAAAAIAGHFVDIRQEGHHHHHH”, the “soluble on expression in E. coli” value is given as “soluble”.

Take “MSLSKKIVIVGGVAGGASTAARLRRLDENNQIIMFERGPHVSFSNCCLPYYLSGKVENHEDLVLMTPEKFYSQYRIDARVYTEVVSINRKAKEVTVRNVVSGQEYTESYDKLVLSPGAKAIVPPIKGIEDVNVFTVRNVVDIAKLDSFIKDNNSKNISVIGGGFIGVEVAENLHEAGYNVTLIEAMDQIMKPFDYDMVQVLHKEMYDKGVNLIVGDKVSSFESGKVVLESGKKINSDAVVMAIGVAPETDLAREAGLEIGQTGAIKVNQNYLTNDKDIYAVGDAVEVYNSLTNSISRLPLAGPAQKQARAVADHIHGRPSRNSGYIGSSCVQIFDYNGASTGLTEGQIKAMNLSLNYDVVRVIPQDKVGLMPGSEPLHFKLIFEVPTGRILGAQAIGKGNADKRVDIIATLIKMGGTVEDLKDLELCYAPPFGTAKDVVNHAALVASNLLEGTFKQVYVHEVRDLVESGACIIDVREVSEYEAGHIKGAKNLPLSEIRDRLDEIPTDRPVYLHCRSAQRSYNACLALQHLGFDNIYNVSGGFMGISFYEYYNDKVQDREPIVTEYNFNEGHHHHHH”: the “soluble on expression in E. coli” value is “soluble”. As for “MSLSKSRKIDVHAHVLPKNIPDFQEKFGYPGFVRLDHKEDGTTHMVKDGKLFRVVEPNCFDTETRIADMNRANVNVQCLSTVPVMFSYWAKPADTEIVARFVNDDLLAECQKFPDRLVPLGTLPMNDVQRAVEEVKRCVSMGIKGFEVGSHVAEKSLDHRDFWPLYKICEELSVVLFVHPWDMHMWDGRLDKYWMPWLVGMPSETAQAICSVLMGNILVLFPKLKLCFAHGGGAYPQIRGRVSHGWNVRPDLCAGKCKVAPNKLDGLLWTDSLVHDPKALELLINTVGKEHIVLGTDYPFPLGELEVGRVVEEYKPFSAKDREDLLWKNAVKMLDIDENLLFNKDFEGHHHHHH”, the entry is “not soluble”.

On to “MSLSLLLQQHLSQPWRFLDHTSFGPTFQALQSFAYDDTLCTSIGKSQSPPTLRAWVHHNTVVLGIQDSRLPQIKAGIEALKGFQHDVIVRNSGGLAVVLDSGILNLSLVLKEEKGFSIDDGYELMYELICSMFQDHREQIEAREIVGSYCPGSYDLSIDGKKFAGISQRRIRGGVAVQIYLCVSGSGAERAKMIRTFYDKAVAGQPTKFVYPRIKPETMASLSELLGQPHNVSDVLLKALMTLQQHGASLLTESLSADEWLLYEQHFARISERNEKLLAEEGHHHHHH”, for which the “soluble on expression in E. coli” value is given as “soluble”.
